Here are results for one substance from US20130289246A1.

Holding throughout (experiment): cell-based or functional assay
For experiment [1], the target named is HA of A/California/04/2009 (H1N1) virus (Influenza A virus (H1N1)).
Experiment [2] concerns the target HA of A/Vietnam/1203/2004 (H5N1) virus (Influenza A virus (H5N1)).
In experiment [3] the target is HA of A/Alabama/1/1981 (H3N2) virus (Influenza A virus (H3N2)).
The target of experiment [4] is HA of A/Hong Kong/1/1968 (H3N2) virus (Influenza A virus (H3N2)) (UniProt Q91MA7).

Take murine hybridoma mAb S139/1 (antibody): the HAI activity in experiment [1] is more than 50 µg/mL; in experiment [2], more than 50 µg/mL; in experiment [3], more than 50 µg/mL; in experiment [4] it was less than 0.2 µg/mL.
